Laboratory results: article PMC10953500 (2024)

Assays:
[1] = molecular target: receptor binding domain (RBD) of the SARS-CoV-2 spike protein with C-terminal 6xHis-tag (SARS-CoV-2, UniProt P0DTC2 319-541); experiment: SPR
[2] = molecular target: recombinant CD89 (Fc-alpha receptor, FcαRI) with C-terminal His-tag (UniProt P24071 22-227); experiment: SPR
Sequence of recombinant CD89 (Fc-alpha receptor, FcαRI) with C-terminal His-tag (P24071 22-227): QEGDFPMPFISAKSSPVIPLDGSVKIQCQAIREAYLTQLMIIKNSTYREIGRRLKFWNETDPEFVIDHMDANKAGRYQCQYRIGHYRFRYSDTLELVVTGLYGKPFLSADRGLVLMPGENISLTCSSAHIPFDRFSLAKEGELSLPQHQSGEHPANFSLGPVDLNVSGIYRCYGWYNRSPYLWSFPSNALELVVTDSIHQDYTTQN

B1: COVA2-15 monomeric IgA2 (antibody)
chain 1: QVQLLESGGGLVQPGGSLRLSCAASGFTFSSYAMSWVRQAPGKGLEWASAISGSGGSTYYADSVEGRFTISRDNSKNTLYLQMNSLRAEDTAVYYCAKDTGYCGDDCYIKLIRGGPDYWGQGTLVTVSS
chain 2: DIVMTQSPLSLPVTLGQPASISCRSSQSLVYSDGNTFLNWFQQRPGQSPRRLIYQVSNRDSGVPDRFSGSGSGTDFTLKISRVEAEDVGVYYCMQGTHWPRTFGQGTKLEIK
Kd [1]: 1.56 nM | Kd [2]: 35.7 nM
